Test results reported in patent US20250154240A1, “ANTI-HUMAN CXCL1 ANTIBODY” (CHIOME BIOSCIENCE INC., priority 2022, published 2025).

How the values were obtained:
[1] = test system: OCUM-12 gastric cancer cell line; assay: Antitumor activity test, model with OCUM-12 orthotopic transplantation (prevention model); assay type: in vivo, mouse; conditions: 400 μg/head intraperitoneally twice a week, 3 weeks; compared to hIgG1 antibody
Method: A model with OCUM-12 orthotopic transplantation was prepared to evaluate the above 4 types of candidate antibodies for their in vivo CXCR2 migration inhibitory activity and antitumor activity in a xenograft model with OCUM-12 orthotopic transplantation.
For use as mice, female nude mice (BALB/cAJcl-nu/nu) at 5 to 6 weeks of age were purchased from CLEA Japan, Inc., Japan. For use as human cancer cells, a gastric cancer cell line, OCUM-12, was provided by University Public Corporation Osaka, Japan.
OCUM-12 cells were cultured in D-MED medium (FUJIFILM Wako Pure Chemical Corporation, Japan) supplemented with 10% fetal bovine serum (FBS; Sigma-Aldrich Corporation) and 1/100 volumes of a penicillin-streptomycin mixture (Nacalai Tesque, Inc., Japan). The cells to be transplanted were detached with 0.25% trypsin/0.02% EDTA (Thermo Fisher Scientific) and washed with PBS, and 4× 10^5 cells per mouse were transplanted into the gastric wall of each mouse.
On the day following the above transplantation, the mice were randomized into groups (8 or 6 mice per group) and intraperitoneally administered with PBS as a control and with 4 types of candidate antibodies (1A-7H10, 4A-2F7, 5A-5E11 and 028-8-12) and 3 types of non-candidate antibodies (1A-3C6, 1A-2H3 and 4A-5B11) at a dose of 20 mg/kg. In addition, mouse IgG1 as a control was intraperitoneally administered at a dose of 20 mg/kg, and 3 types of antibodies (5A-5E11, 1A-4H10 and 4A-7G7) among the candidate antibodies were intraperitoneally administered at a dose of 20 mg/kg. The administration of these antibodies was then continued with a frequency of twice a week until the completion of the test. After 3 weeks had passed from the transplantation, the mice were sacrificed, and the short- and long-axis diameters of tumors formed in their gastric walls were each measured with a caliper. The tumor size was calculated according to the following: 1/2 short-axis diameter (mm)×1/2 long-axis diameter (mm)×3.14.
(§1) Navarixin is among small molecular compounds that act on CXCR2 and inhibit CXCL1-CXCR2 signaling. […] Then, using a model with OCUM-12 orthotopic transplantation, the migration inhibition of CXCR2-expressing cells and antitumor activity were evaluated in vivo for Navarixin. As a vehicle, ultrapure water containing 20% 2-hydroxypropyl-β-cyclodextrin (FUJIFILM Wako Pure Chemical Corporation, Japan) was used. Navarixin (MedChemExpress) was dissolved in ultrapure water containing 20% 2-hydroxypropyl-β-cyclodextrin, and orally administered at a dose of 100 mg/kg/day in a schedule of once a day for 5 consecutive days, followed by a 2-day withdrawal.
The humanized antibodies were evaluated for their in vivo antitumor activity and CXCR2 migration inhibitory activity in a xenograft model with OCUM-12 orthotopic transplantation. Procedures for the evaluation are shown below.
For use as mice, female nude mice (BALB/cAJcl-nu/nu) at 5 to 6 weeks of age were purchased from CLEA Japan, Inc., Japan. For use as human cancer cells, gastric cancer cell line, OCUM-12, was provided by Osaka Metropolitan University, Japan.
OCUM-12 cells were cultured in D-MED medium (FUJIFILM Wako Pure Chemical Corporation, Japan) supplemented with 10% fetal bovine serum (hereinafter abbreviated as FBS; Sigma-Aldrich Corporation) and 1/100 volumes of a penicillin-streptomycin mixture (Nacalai Tesque, Inc., Japan). The cells to be transplanted were detached with 0.25% trypsin/0.02% EDTA (Thermo Fisher Scientific) and washed with PBS, and 4×10^5 cells per mouse were transplanted into the gastric wall of each mouse. On the day following the transplantation, the mice were randomized into groups (8 mice per group) and intraperitoneally administered with test antibodies at a dose of 400 μg/head. PBS was intraperitoneally administered in a volume of 200 μL with a frequency of twice a week for 3 weeks, starting from the day following the transplantation. […]

CXCR2-expressing cells = assay: In vivo migration inhibitory activity test on CXCR2-expressing cells, OCUM-12 orthotopic transplantation (prevention model); design: species or system mouse; conditions: 400 μg/head intraperitoneally twice a week, 3 weeks; compared to hIgG1 antibody
Text: (§2) The stomachs after measurement of the tumor size in [3-1] above were excised and fixed overnight at room temperature with a 10% neutral buffered formalin solution (Wako Pure Chemical Industries, Ltd., Japan), followed by replacement with PBS. Then, paraffin embedding and section preparation were outsourced to Applied Medical Research Laboratory, Japan. The prepared gastric tumor sections were immunohistologically stained with an anti-CXCR2 antibody to evaluate in vivo CXCR2 cell migration inhibitory activity. The sections were deparaffinized and rehydrated, and then treated to inactivate endogenous peroxidase. After antigen activation treatment, the sections were blocked with PBS containing 2% skimmed milk and 0.1% Tween-20, and reacted overnight at 4° C. with an anti-CXCR2 antibody (Biorbyt) as a primary antibody, which had been diluted to 0.3 μg/mL with the blocking solution. After washing with PBS containing 0.1% Tween-20, the sections were reacted at room temperature for 1 hour with an HRP-labeled goat anti-rabbit IgG antibody (Abcam) as a secondary antibody. After washing with a washing solution, a simple stain DAB solution (5052, Nichirei Corporation, Japan) was used to cause color development. After images of the stained tissues were captured with an Explore (Olympus Corporation, Japan), imaging software CellSens (Olympus Corporation, Japan) was used to calculate CXCR2-positive cells per unit area.
as §1
as §2, with “after measurement were excised” for “after measurement of the tumor size in [3-1] above were excised”, “and 0.1% Tween-20 (hereinafter referred to as the blocking solution), and reacted” for “and 0.1% Tween-20, and reacted”, “been diluted 1667-fold with the” for “been diluted to 0.3 μg/mL with the”, “to calculate positive cells per” for “to calculate CXCR2-positive cells per”
The dose-response relationship between antibody dose and in vivo antitumor activity or CXCR2 migration inhibitory activity was evaluated in a xenograft prevention model with OCUM-12 orthotopic transplantation. A prevention model is a model designed to start antibody administration from the day following tumor transplantation. […]

Molecule | Antitumor activity (tumor area) [1] | Migration of CXCR2-expressing cells (positive cells per unit area) (CXCR2-expressing cells)
Hu4A-2F7: humanized antibody VH1/VL1; VH SEQ ID NO: 72, VL SEQ ID NO: 74 (antibody, V domains shown) VH: QVTLKESGPALVKPTQTLTLTCTFSGFSLSTSGMGVDWIRQPPGKALEWLAHIWWDDDKYYNPSLKSQLTISKDTSKNQVVLTMTNMDPVDTATYYCARSYGYDMDYYAMDYWGQGTTVTVSS VL: DIQMTQSPSSLSASVGDRVTITCRASQEISGYLSWLQQKPGKAPKRLIYAASTLSSGVPSRFSGSGSGTDFTLTISSLQPEDFATYYCLQYASYPPWTFGGGTKVEIK | significantly suppress an increase in the tumor area | significantly suppress the migration of CXCR2-expressing cells
modified human antibody 028-8-12: human antibody 028-8-12 with amino acid modifications in CDR and VL regions; VH SEQ ID NO: 63, VL SEQ ID NO: 67 (antibody, V domains shown) VH: EVQLLESGGGLVQPGGSLRLSCAASGFTFSELSMSWVRQAPGKGLEWVSAISGSGGSTYYASSVKGRFTISRDNSKNTLYLQMNSLRAEDTAVYYCAREGGRLEPYYYYYAMDVWGQGTPVTVSS VL: DIQMTQSPSSLSASVGDRVTITCRASQSISDNLHWYQQKPGKAPKLLIYDASNLESGVPSRFSGSGSGTDFTLTISSLQPEDFATYYCQQYYSTPLTFGQGTKLEIK | significantly suppress an increase in the tumor area | significantly suppress the migration of CXCR2-expressing cells
Hu1A-7H10: humanized antibody VH1/VL1; VH SEQ ID NO: 68, VL SEQ ID NO: 70 (antibody, V domains shown) VH: QVTLKESGPVLVKPTETLTLTCTVSGFSSTTYGVHWVRQPPGKALEWLGVIWAGGSTNYNAALMSRLTISKDTSKSQVVLTMTNMDPVDTATYYCATQYHYPFAYWGQGTLVTVSS VL: DIQMTQSPSSLSASVGDRVTITCKASENVGIYVSWYQQKPGKAPKLMIYGASNRNTGVPSRFSGSGSGTDFTLTISSLQPEDFATYYCGQSYSYPLTFGGGTKVEIK | significantly suppress an increase in the tumor area | significantly suppress the migration of CXCR2-expressing cells
